{"source": "patent US20200255478A1", "about": "“NOVEL COMPOUNDS ACTIVATING THE NRF2 PATHWAY” (Almirall, S.A., priority 2017, published 2020)", "binders": {"B1": {"name": "{[Stearyl-βAla-Leu-Gln-Cys(&1)-Asp-Pro-Glu-Thr-Gly-Glu-Cys(&2)-Leu-Pro-βAla-Arg-Lys-Lys-Arg-Arg-Gln- (peptide)", "peptide": "Stearyl-[βAla]LQCDPETGECLP[βAla]RKKRRQRRR-NH2", "modifications": "bridge 4-11; not fully specified (bridges); also: Cys4 and Cys11 cyclised, linker not given here"}}, "target": "Keap1-Maltose Binding Protein (MBP tag), Q14145", "sequence (Q14145 321-609 limits assumed)": "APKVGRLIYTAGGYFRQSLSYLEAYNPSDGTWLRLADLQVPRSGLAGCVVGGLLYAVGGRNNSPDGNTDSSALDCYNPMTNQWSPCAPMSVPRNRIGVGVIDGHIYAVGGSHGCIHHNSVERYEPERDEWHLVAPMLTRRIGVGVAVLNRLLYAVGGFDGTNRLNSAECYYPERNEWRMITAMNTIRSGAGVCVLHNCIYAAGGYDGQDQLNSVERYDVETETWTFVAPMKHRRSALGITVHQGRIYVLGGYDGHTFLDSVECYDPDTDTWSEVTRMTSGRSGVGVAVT", "assay": "TR-FRET competition vs ETGE-biotin; grade band per paragraph 615", "note": "Where “and” joins values, the source holds several entries; their conditions need not be identical. Identical values can stand only once. Positions of bridges follow the written chain, without caps; N, C: chain ends. Non-standard residues stand in square brackets, D forms with d. βAla = NCCC(=O)O", "data": [{"binder": "B1", "values": [{"measurement": "IC50", "value": "< 0.1 µM and > 0.001 µM"}]}]}
